In the supplement of paper PMC10567573:

B1: ANKRD40 (parent)
chain: VRIQNPSLRENDFIEIELDRQELT

Variants of: B1
Experiment: protein stability index of a GFP-peptide fusion (GPS, HEK-293T) (PSI 1-6); higher = more stable
Conditions: c terminus: a fixed tail appended
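Note: lentivirally expressed fusions sorted by FACS into six bins by GFP to DsRed ratio, PSI derived from sequencing read proportions per bin multiplied by bin number.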

Variant | protein stability index
VRIQQPSLRENDFIEIELDRQELT | 2.07
VRIQGPSLRENDFIEIELDRQELT | 1.9
VRIQIPSLRENDFIEIELDRQELT | 2.43
VRIQPPSLRENDFIEIELDRQELT | 2.08
VRIQTPSLRENDFIEIELDRQELT | 2.16
VRIQHPSLRENDFIEIELDRQELT | 1.73
VRIQAPSLRENDFIEIELDRQELT | 1.86
VRIQFPSLRENDFIEIELDRQELT | 2.28
VRIQWPSLRENDFIEIELDRQELT | 2.23
VRIQSPSLRENDFIEIELDRQELT | 1.74
VRIQMPSLRENDFIEIELDRQELT | 2.73
VRIQDPSLRENDFIEIELDRQELT | 2.48
VRIQKPSLRENDFIEIELDRQELT | 2.74
VRIQCPSLRENDFIEIELDRQELT | 2.45
VRIQYPSLRENDFIEIELDRQELT | 1.36
VRIQRPSLRENDFIEIELDRQELT | 2.29
VRIQEPSLRENDFIEIELDRQELT | 3.08
VRIQLPSLRENDFIEIELDRQELT | 3.56
VQIQNPSLRENDFIEIELDRQELT | 4.3
VDIQNPSLRENDFIEIELDRQELT | 4.69
VLIQNPSLRENDFIEIELDRQELT | 2.24
VGIQNPSLRENDFIEIELDRQELT | 4.28
VVIQNPSLRENDFIEIELDRQELT | 2.46
VKIQNPSLRENDFIEIELDRQELT | 2.98

Variant | protein stability index
VMIQNPSLRENDFIEIELDRQELT | 3.05
VYIQNPSLRENDFIEIELDRQELT | 1.73
VAIQNPSLRENDFIEIELDRQELT | 2.73
VTIQNPSLRENDFIEIELDRQELT | 3.5
VFIQNPSLRENDFIEIELDRQELT | 1.87
VIIQNPSLRENDFIEIELDRQELT | 2.29
VHIQNPSLRENDFIEIELDRQELT | 3.13
VPIQNPSLRENDFIEIELDRQELT | 4.93
VWIQNPSLRENDFIEIELDRQELT | 1.74
VSIQNPSLRENDFIEIELDRQELT | 3.64
VCIQNPSLRENDFIEIELDRQELT | 2.93
VNIQNPSLRENDFIEIELDRQELT | 4.11
VEIQNPSLRENDFIEIELDRQELT | 4.16
FRIQNPSLRENDFIEIELDRQELT | 2.58
TRIQNPSLRENDFIEIELDRQELT | 3.96
ARIQNPSLRENDFIEIELDRQELT | 3.91
ERIQNPSLRENDFIEIELDRQELT | 4.77
YRIQNPSLRENDFIEIELDRQELT | 3.41
NRIQNPSLRENDFIEIELDRQELT | 4.46
MRIQNPSLRENDFIEIELDRQELT | 2.79
DRIQNPSLRENDFIEIELDRQELT | 5.15
QRIQNPSLRENDFIEIELDRQELT | 4.27
KRIQNPSLRENDFIEIELDRQELT | 3.97
